Key:
Experiment in all cases: two-hybrid library CCNG1;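 note: natural log of median RNA to DNA barcode read ratio; higher means stronger binding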
[1] = target: T1, 4H780-bA
T1 chain: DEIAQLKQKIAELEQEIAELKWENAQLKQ

[2] = target: T2, O14-bA
T2 chain: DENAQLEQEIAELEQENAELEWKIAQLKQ

[3] = target: T3, 4H968-bA
T3 chain: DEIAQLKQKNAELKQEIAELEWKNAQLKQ

[4] = target: T4, 4H953-bA
T4 chain: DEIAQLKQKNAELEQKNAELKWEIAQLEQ

[5] = target: T5, 4H575-bA
T5 chain: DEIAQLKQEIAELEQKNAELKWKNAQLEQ

[6] = target: T6, 4H754-bA
T6 chain: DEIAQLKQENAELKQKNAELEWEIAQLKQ

[7] = target: T7, 4H855-bA
T7 chain: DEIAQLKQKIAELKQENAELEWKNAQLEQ

[8] = target: T8, 4H457-bA
T8 chain: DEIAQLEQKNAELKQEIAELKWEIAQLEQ

[9] = target: T9, 4H683-bA
T9 chain: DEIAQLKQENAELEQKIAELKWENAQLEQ

[10] = target: T10, 4H918-bA
T10 chain: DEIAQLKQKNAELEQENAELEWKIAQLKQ

[11] = target: T11, 4H797-bA
T11 chain: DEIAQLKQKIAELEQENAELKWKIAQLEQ

[12] = target: T12, 4H470-bH
T12 chain: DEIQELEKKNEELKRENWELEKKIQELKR

[13] = target: T13, 4H3907-bH
T13 chain: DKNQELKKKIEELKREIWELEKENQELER

[14] = target: T14, 4H3961-bH
T14 chain: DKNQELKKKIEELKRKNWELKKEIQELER

[15] = target: T15, 4H4038-bH
T15 chain: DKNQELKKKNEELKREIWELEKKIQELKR

[16] = target: T16, 4H570-bN
T16 chain: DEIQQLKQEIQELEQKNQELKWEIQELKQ

[17] = target: T17, 4H3858-bN
T17 chain: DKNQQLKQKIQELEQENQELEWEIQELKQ

[18] = target: T18, O15
T18 chain: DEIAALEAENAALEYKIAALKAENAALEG

[19] = target: T19, 4H3974-bN
T19 chain: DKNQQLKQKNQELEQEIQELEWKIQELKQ

[20] = target: T20, 4H850-bN
T20 chain: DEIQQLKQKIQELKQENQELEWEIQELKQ

[21] = target: T21, 4H908-bA
T21 chain: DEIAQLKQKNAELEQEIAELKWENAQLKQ

[22] = target: T22, 4H967-bA
T22 chain: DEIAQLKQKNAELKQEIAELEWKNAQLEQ

[23] = target: T23, 4H883-bA
T23 chain: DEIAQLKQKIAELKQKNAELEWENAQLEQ

[24] = target: T24, O5-bP
T24 chain: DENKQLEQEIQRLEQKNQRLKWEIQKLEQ

[25] = target: T25, O16-bS
T25 chain: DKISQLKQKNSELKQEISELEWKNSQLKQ

[26] = target: T26, O5-bS
T26 chain: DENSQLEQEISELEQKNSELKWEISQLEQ

[27] = target: T27, O2-bS
T27 chain: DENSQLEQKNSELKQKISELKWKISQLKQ

[28] = target: T28, O6-bS
T28 chain: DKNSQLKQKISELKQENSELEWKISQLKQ

[29] = target: T29, O8-bS
T29 chain: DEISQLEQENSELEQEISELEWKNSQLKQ

[30] = target: T30, O4-bS
T30 chain: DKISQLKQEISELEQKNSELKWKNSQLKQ

[31] = target: T31, O7-bS
T31 chain: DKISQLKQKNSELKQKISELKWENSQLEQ

[32] = target: T32, O3-bS
T32 chain: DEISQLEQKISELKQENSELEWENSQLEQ

[33] = target: T33, P6A
T33 chain: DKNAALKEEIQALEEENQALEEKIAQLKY

[34] = target: T34, P7A
T34 chain: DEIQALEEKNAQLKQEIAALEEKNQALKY

[35] = target: T35, P8A
T35 chain: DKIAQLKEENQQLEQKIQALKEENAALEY

[36] = target: T36, P5A
T36 chain: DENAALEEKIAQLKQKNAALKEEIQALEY

[37] = target: T37, P4A
T37 chain: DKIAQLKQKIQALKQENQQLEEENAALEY

[38] = target: T38, P9A
T38 chain: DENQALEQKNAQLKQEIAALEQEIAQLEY

[39] = target: T39, 4H1899-bA
T39 chain: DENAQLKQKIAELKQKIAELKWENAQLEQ

[40] = target: T40, 4H3175-bA
T40 chain: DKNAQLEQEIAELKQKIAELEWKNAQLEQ

[41] = target: T41, 4H1985-bA
T41 chain: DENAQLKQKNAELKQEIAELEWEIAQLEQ

[42] = target: T42, 4H2586-bN
T42 chain: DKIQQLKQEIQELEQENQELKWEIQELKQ

[43] = target: T43, 4H3926-bA
T43 chain: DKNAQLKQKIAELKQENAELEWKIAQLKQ

[44] = target: T44, 4H3817-bA
T44 chain: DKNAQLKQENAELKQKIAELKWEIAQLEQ

[45] = target: T45, 4H850-bA
T45 chain: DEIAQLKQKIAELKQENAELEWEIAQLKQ

[46] = target: T46, 4H3974-bA
T46 chain: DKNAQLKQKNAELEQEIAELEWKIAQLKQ

[47] = target: T47, 4H3497-bA
T47 chain: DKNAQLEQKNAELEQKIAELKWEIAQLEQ

[48] = target: T48, 4H591-bA
T48 chain: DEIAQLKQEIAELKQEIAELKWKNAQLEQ

[49] = target: T49, 4H906-bA
T49 chain: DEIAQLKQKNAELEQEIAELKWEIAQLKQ

[50] = target: T50, 4H3162-bA
T50 chain: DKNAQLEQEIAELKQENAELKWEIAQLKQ

[51] = target: T51, 4H3277-bA
T51 chain: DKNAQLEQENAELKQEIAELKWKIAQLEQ

[52] = target: T52, 4H3858-bA
T52 chain: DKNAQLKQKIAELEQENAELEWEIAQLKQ

[53] = target: T53, 4H3628-bA
T53 chain: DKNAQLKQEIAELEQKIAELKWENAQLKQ

[54] = target: T54, 4H570-bA
T54 chain: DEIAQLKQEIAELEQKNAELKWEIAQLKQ

[55] = target: T55, 4H3462-bA
T55 chain: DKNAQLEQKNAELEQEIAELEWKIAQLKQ

[56] = target: T56, 4H626-bA
T56 chain: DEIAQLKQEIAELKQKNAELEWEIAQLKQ

[57] = target: T57, 4H3298-bA
T57 chain: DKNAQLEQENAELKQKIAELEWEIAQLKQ

[58] = target: T58, 4H3613-bA
T58 chain: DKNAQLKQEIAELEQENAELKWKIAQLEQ

[59] = target: T59, 4H3414-bA
T59 chain: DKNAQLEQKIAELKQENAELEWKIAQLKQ

[60] = target: T60, 4H3631-bA
T60 chain: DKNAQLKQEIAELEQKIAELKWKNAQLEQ

[61] = target: T61, 4H584-bA
T61 chain: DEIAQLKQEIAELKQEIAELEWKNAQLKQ

[62] = target: T62, O8-bN
T62 chain: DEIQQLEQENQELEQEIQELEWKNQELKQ

[63] = target: T63, 4H3172-bA
T63 chain: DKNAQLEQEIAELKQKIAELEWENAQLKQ

[64] = target: T64, 4H570-bH
T64 chain: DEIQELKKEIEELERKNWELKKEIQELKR

[65] = target: T65, 4H3129-bA
T65 chain: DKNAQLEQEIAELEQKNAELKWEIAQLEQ

[66] = target: T66, 4H3638-bA
T66 chain: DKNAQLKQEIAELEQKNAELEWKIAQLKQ

[67] = target: T67, 4H619-bA
T67 chain: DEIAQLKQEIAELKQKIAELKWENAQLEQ

Binder: DEIAQLEQKNAELKQEIAELKWEIAQLEQ [4H457-bA]
- interaction score [1]: -1.18
- interaction score [2]: -0.0398
- interaction score [3]: 0.0968
- interaction score [4]: -0.948
- interaction score [5]: -1.69
- interaction score [6]: -1.54
- interaction score [7]: -1.04
- interaction score [8]: -0.968
- interaction score [9]: 0.308
- interaction score [10]: -0.845
- interaction score [11]: -1.25

Binder: DKNQELKKKIEELKREIWELEKENQELER [4H3907-bH]
- interaction score [12]: -0.458
- interaction score [13]: 0.462
- interaction score [14]: -0.402
- interaction score [15]: -0.272

Binder: DKNQQLKQKIQELEQENQELEWEIQELKQ [4H3858-bN]
- interaction score [16]: 0.143
- interaction score [17]: -0.115
- interaction score [18]: -1.67
- interaction score [19]: -1.21
- interaction score [20]: -1.15

Binder: DEIAQLKQKIAELKQKNAELEWENAQLEQ [4H883-bA]
- interaction score [2]: 0.814
- interaction score [21]: -1.33
- interaction score [22]: -1.69
- interaction score [4]: -1.68
- interaction score [23]: -0.18
- interaction score [24]: -1.74
- interaction score [10]: -1.15

Binder: DKISQLKQKNSELKQEISELEWKNSQLKQ [O16-bS]
- interaction score [25]: -1.23
- interaction score [26]: -3.22
- interaction score [27]: -0.368
- interaction score [28]: -0.0299
- interaction score [29]: -1.97
- interaction score [30]: -0.194
- interaction score [31]: -0.709
- interaction score [32]: -1.15

Binder: DKIAQLKQKIQALKQENQQLEEENAALEY [P4A]
- interaction score [33]: -1.35
- interaction score [34]: -2.13
- interaction score [35]: -1.42
- interaction score [36]: -2.12
- interaction score [37]: -2.18
- interaction score [38]: -1.08

Binder: DENAQLKQKIAELKQKIAELKWENAQLEQ [4H1899-bA]
- interaction score [39]: -0.612
- interaction score [40]: -1.03
- interaction score [41]: 0.619
- interaction score [42]: -1.99
- interaction score [43]: -1.03
- interaction score [44]: -0.216
- interaction score [45]: -0.973
- interaction score [46]: -0.528
- interaction score [47]: -0.482
- interaction score [48]: -1.45
- interaction score [49]: -0.765
- interaction score [50]: -1.28
- interaction score [51]: -1.41
- interaction score [52]: -0.565
- interaction score [53]: 0.582
- interaction score [54]: 0.517
- interaction score [55]: -0.31
- interaction score [56]: -1.38
- interaction score [57]: -0.142
- interaction score [58]: -1.23

Binder: DENAQLKQKNAELKQEIAELEWEIAQLEQ [4H1985-bA]
- interaction score [40]: -1.53
- interaction score [59]: -1.09
- interaction score [41]: -0.898
- interaction score [60]: -1.21
- interaction score [61]: -1.42
- interaction score [62]: -2.01
- interaction score [43]: -1.07
- interaction score [44]: -0.287
- interaction score [45]: -1.45
- interaction score [4]: -1.8
- interaction score [63]: -0.781
- interaction score [46]: -0.265
- interaction score [47]: -1.03
- interaction score [48]: -1.46
- interaction score [49]: -1.08
- interaction score [50]: -1.66
- interaction score [51]: -0.983
- interaction score [52]: -1.31
- interaction score [64]: -0.714
- interaction score [53]: -1.35
- interaction score [54]: -1.97
- interaction score [55]: -0.708
- interaction score [56]: -1.19
- interaction score [57]: -0.906
- interaction score [58]: -1.14
- interaction score [65]: -1.14
- interaction score [66]: -0.944
- interaction score [67]: -0.916

Binder: DKNQELKKKNEELKREIWELEKKIQELKR [4H4038-bH]
- interaction score [15]: 0.656
